Measurements: US20090004206A1 (ALETHIA BIOTHERAPEUTICS, published 2009)

Target: T1, Flag-tagged mouse v-ATPase a4 subunit fragment (amino acids 1-388) (mouse, UniProt Q920R6 1-388)
T1 construct: range 1-388; Expressed in 293FT cells from pCMX-Flag/v-ATPase-a4 and used as cell lysate; also called Flag-tagged a4; not shown: Flag tag of vector pCMX-Flag
Assay: GST pull-down from 293FT lysate, anti-Flag Western blot
From the text: ID. NO. 89 (d2) (SEQ ID NO.:154) was cloned into the prokaryotic expression vector, pGEX-2T (Pharmacia, GE Healthcare), expressed as a GST fusion protein in E. coli and purified with glutathione beads. In parallel, cDNA fragments of mouse v-ATPase-a3 (amino acids 1-385) and v-ATPase a4 (amino acids 1-388) were cloned into the eukaryotic expression vector, pCMX-Flag in order to express a Flag-tagged a3 subunit or a4 subunit in mammalian cells. The pCMX-Flag/v-ATPase-a3 and pCMX-Flag/v-ATPase-a4 recombinant plasmids were transfected in 293FT cells and cell lysates were generated in which, the v-ATPase-a3 and v-ATPase-a4 FLAG-tagged polypeptides were readily detected with an anti-Flag antibody (FIG. 21B, II, upper panel).
In order to measure the interaction between d2 (SEQ. ID. NO. 89) and a3 or a4, equal amounts of 293FT lysates containing either Flag-tagged a3 or a4 were incubated with purified GST or GST-d2 at 4° C. for 90 minutes under mild agitation. After washing, the protein mixes were separated on a SDS-PAGE and transferred to PVDF membrane. […] Clearly, only the a3 fragment could be detected in the GST-d2 reactions compared to the GST reactions indicating a specific interaction between d2 and a3 (FIG. 21B, I-a3, upper panel) but not between d2 and a4 (FIG. 21B, I-a4, upper panel). […]

T1 sequence (Q920R6 1-388): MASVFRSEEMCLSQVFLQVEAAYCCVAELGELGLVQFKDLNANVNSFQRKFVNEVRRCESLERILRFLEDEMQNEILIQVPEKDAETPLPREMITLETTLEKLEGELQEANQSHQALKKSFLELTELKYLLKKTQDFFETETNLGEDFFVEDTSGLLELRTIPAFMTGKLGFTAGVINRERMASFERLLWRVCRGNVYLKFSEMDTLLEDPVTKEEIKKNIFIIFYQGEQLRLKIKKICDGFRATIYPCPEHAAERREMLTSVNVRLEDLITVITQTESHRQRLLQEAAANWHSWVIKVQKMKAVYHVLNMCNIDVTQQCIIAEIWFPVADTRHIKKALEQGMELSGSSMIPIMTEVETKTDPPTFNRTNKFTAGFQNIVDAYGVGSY

B1: GST-d2 (GST fusion protein of the human v-ATPase d2 subunit, polypeptide SEQ ID NO.:154 encoded by SEQ. ID. NO. 89) (other)
chain: not shown
notes: also called AB0179 human orthologue; not shown: glutathione S-transferase (GST) tag of the prokaryotic expression vector pGEX-2T (Pharmacia, GE Healthcare)
binding result: no binding
